The data set has as its system Saccharomyces cerevisiae PS128 hsf1 delta, HSF1(1-493) fusion. In words: growth estimate (transactivation domain function in HSF1 fusion, heat-shock survival) (a.u. (slope of normalised read count over time)); higher = stronger growth at 37°C, i.e. more transactivation activity. The following applies: library: design library. In short, it runs like this: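 Transactivation-domain oligos were designed and fused to a truncated yeast HSF1 (amino acids 1–493), then expressed in a yeast strain lacking hsf1. Replica plating onto –trp 5-FOA plates was followed by incubation at 30°C or 37°C for 0, 2, 4, 6 and 8 days. Inserts were amplified by PCR and sequenced on an Illumina MiSeq as six barcoded replicates from a single experiment. The growth estimate is the slope of a robust linear fit over time of read counts normalised to sample totals and to starting count.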

For the sequence DLDESWDYAFETTE, the growth estimate was < -0.25.

In the case of DLDESWDYIAETTE, the growth estimate is -0.174.

Regarding DLDESWDYIFATTE, the growth estimate was 1.5.

For the sequence DLDESWDYIFEATE, the growth estimate is 2.47.

DLDESWDYIFEGTE: the growth estimate is 1.27.

In the case of DLDESWDYIFEKTE, the growth estimate is -0.233.

As to DLDESWDYIFEPTE, the growth estimate is 1.97.

For the sequence DLDESWDYIFERTE, the growth estimate was 0.415.

For DLDESWDYIFETAE, the growth estimate is 1.08.

In the case of DLDESWDYIFETGE, the growth estimate is 1.44.

On to DLDESWDYIFETPE, for which the growth estimate was 0.951.

On to DLDESWDYIFETRE, for which the growth estimate was 0.311.

As for DLDESWDYIFETTA, the growth estimate was 0.992.

For DLDESWDYIFETTE, the growth estimate is 1.92.

With DLDESWDYIFETTG, the growth estimate was 2.74.

On to DLDESWDYIFETTK, for which the growth estimate is -0.0269.

As for DLDESWDYIFETTP, the growth estimate is 3.58.

With DLDESWDYIFETTR, the growth estimate was 1.15.

As to DLDESWDYIFGTTE, the growth estimate is 0.717.

With DLDESWDYIFKTTE, the growth estimate is 0.154.

As to DLDESWDYIFPTTE, the growth estimate is 0.0438.

Regarding DLDESWDYIFRTTE, the growth estimate is 0.833.

Regarding DLDESWDYIGETTE, the growth estimate is -0.243.

In the case of DLDESWDYIPETTE, the growth estimate was < -0.25.

DLDESWDYKFETTE: the growth estimate was -0.178.

Consider DLDESWDYRFETTE, for which the growth estimate is -0.247.

Consider DLDESWGYIFETTE, for which the growth estimate was 0.0335.

For DLDESWKYIFETTE, the growth estimate was -0.0397.

Regarding DLDESWPYIFETTE, the growth estimate is -0.161.

Consider DLDESWRYIFETTE, for which the growth estimate is 0.0438.

Consider DLDGSWDYIFETTE, for which the growth estimate is 0.41.

Take DLDKSWDYIFETTE: the growth estimate is -0.196.

As to DLDPSWDYIFETTE, the growth estimate was 0.39.

On to DLDRSWDYIFETTE, for which the growth estimate is -0.214.

DLGESWDYIFETTE: the growth estimate is 0.355.

Consider DLPESWDYIFETTE, for which the growth estimate is -0.108.

As to DLRESWDYIFETTE, the growth estimate was -0.213.

Consider DPDESWDYIFETTE, for which the growth estimate was 0.0829.

Consider DPDLDMLGDFDLDMLG, for which the growth estimate is 4.23.

As for DPLSWIIELLEKDG, the growth estimate is -0.102.

With DRDLDMLGDFDLDMLG, the growth estimate is 0.301.

With DRLSWIIELLEKDG, the growth estimate is < -0.25.

For EADDEFSLWDSML, the growth estimate is 0.306.

As to EANDLLDLDFILSN, the growth estimate is 0.0838.

With EDADEFSLWDSML, the growth estimate was 0.354.

As to EDAYSILWSDVY, the growth estimate is -0.234.

Take EDDAEFSLWDSML: the growth estimate was 0.0227.

EDDDAFSLWDSML: the growth estimate is 0.237.

EDDDEASLWDSML: the growth estimate was < -0.25.

As to EDDDEFALWDSML, the growth estimate was 0.128.

EDDDEFGLWDSML: the growth estimate is 0.402.

Consider EDDDEFKLWDSML, for which the growth estimate was 0.0998.

EDDDEFPLWDSML: the growth estimate is 0.199.

With EDDDEFRLWDSML, the growth estimate was -0.0562.

For the sequence EDDDEFSAWDSML, the growth estimate is -0.0271.

As for EDDDEFSGWDSML, the growth estimate was 0.0815.

On to EDDDEFSKWDSML, for which the growth estimate is -0.228.

Regarding EDDDEFSLADSML, the growth estimate is -0.236.

Take EDDDEFSLGDSML: the growth estimate is < -0.25.

Consider EDDDEFSLKDSML, for which the growth estimate is < -0.25.

Consider EDDDEFSLPDSML, for which the growth estimate was -0.126.

Take EDDDEFSLRDSML: the growth estimate was -0.248.

On to EDDDEFSLWASML, for which the growth estimate is 2.21.

Take EDDDEFSLWDGML: the growth estimate was 0.875.

Consider EDDDEFSLWDKML, for which the growth estimate is -0.201.

Regarding EDDDEFSLWDPML, the growth estimate was 3.13.

With EDDDEFSLWDRML, the growth estimate was -0.15.

Regarding EDDDEFSLWDSAL, the growth estimate was < -0.25.

With EDDDEFSLWDSGL, the growth estimate was -0.19.

As to EDDDEFSLWDSKL, the growth estimate was < -0.25.

In the case of EDDDEFSLWDSMA, the growth estimate was -0.238.

Take EDDDEFSLWDSMG: the growth estimate is -0.226.

Turning to EDDDEFSLWDSMK, the growth estimate was < -0.25.

As to EDDDEFSLWDSML, the growth estimate is 1.95.

For EDDDEFSLWDSMP, the growth estimate is -0.236.

As for EDDDEFSLWDSMR, the growth estimate is -0.239.

For EDDDEFSLWDSPL, the growth estimate was 0.011.

As for EDDDEFSLWGSML, the growth estimate is 1.19.

As to EDDDEFSLWKSML, the growth estimate was < -0.25.

In the case of EDDDEFSLWPSML, the growth estimate is -0.166.

For EDDDEFSLWRSML, the growth estimate is -0.116.

As to EDDDEFSPWDSML, the growth estimate is -0.228.

On to EDDDEFSRWDSML, for which the growth estimate is -0.0194.

Take EDDDEGSLWDSML: the growth estimate was < -0.25.

Turning to EDDDEKSLWDSML, the growth estimate is -0.0523.

For the sequence EDDDEPSLWDSML, the growth estimate was 0.0815.

EDDDERSLWDSML: the growth estimate was < -0.25.

Consider EDDDGFSLWDSML, for which the growth estimate is 0.241.

As to EDDDPFSLWDSML, the growth estimate was 2.41.

On to EDDDRFSLWDSML, for which the growth estimate was -0.141.

For EDDGEFSLWDSML, the growth estimate is 0.47.

For the sequence EDDKEFSLWDSML, the growth estimate is -0.135.

On to EDDPEFSLWDSML, for which the growth estimate was 1.77.

Regarding EDDREFSLWDSML, the growth estimate is -0.175.

As for EDGDEFSLWDSML, the growth estimate was 0.533.

Take EDGYSILWSDVY: the growth estimate was -0.236.

As to EDKDEFSLWDSML, the growth estimate was -0.0707.

Consider EDLASILWSDVY, for which the growth estimate was -0.161.

Consider EDLGSILWSDVY, for which the growth estimate is -0.0522.

In the case of EDLKSILWSDVY, the growth estimate is < -0.25.

As for EDLPSILWSDVY, the growth estimate is < -0.25.

Regarding EDLRSILWSDVY, the growth estimate was < -0.25.

As to EDLYAILWSDVY, the growth estimate is -0.11.

EDLYGILWSDVY: the growth estimate is 0.0695.

On to EDLYKILWSDVY, for which the growth estimate is -0.0738.

As for EDLYPILWSDVY, the growth estimate is < -0.25.

For the sequence EDLYSALWSDVY, the growth estimate is 0.125.

As for EDLYSGLWSDVY, the growth estimate was -0.186.

Turning to EDLYSIAWSDVY, the growth estimate was < -0.25.

On to EDLYSIGWSDVY, for which the growth estimate was -0.212.

For the sequence EDLYSIKWSDVY, the growth estimate is -0.245.

As to EDLYSILASDVY, the growth estimate was -0.238.

Take EDLYSILGSDVY: the growth estimate is < -0.25.

With EDLYSILKSDVY, the growth estimate is < -0.25.

Turning to EDLYSILWADVY, the growth estimate is -0.181.

Take EDLYSILWGDVY: the growth estimate is -0.152.

As to EDLYSILWKDVY, the growth estimate is < -0.25.

As to EDLYSILWPDVY, the growth estimate was 1.01.

Turning to EDLYSILWRDVY, the growth estimate was -0.193.

Values taken from the supplement of paper PMC5949888.
